Measurements reported in publication doi:10.1101/2021.05.04.442675.

Biological target: FLAG-tagged MIWI piRISC made in BmN4 cells (mouse) (UniProt Q9JMB7)
Sequence (Q9JMB7 whole entry): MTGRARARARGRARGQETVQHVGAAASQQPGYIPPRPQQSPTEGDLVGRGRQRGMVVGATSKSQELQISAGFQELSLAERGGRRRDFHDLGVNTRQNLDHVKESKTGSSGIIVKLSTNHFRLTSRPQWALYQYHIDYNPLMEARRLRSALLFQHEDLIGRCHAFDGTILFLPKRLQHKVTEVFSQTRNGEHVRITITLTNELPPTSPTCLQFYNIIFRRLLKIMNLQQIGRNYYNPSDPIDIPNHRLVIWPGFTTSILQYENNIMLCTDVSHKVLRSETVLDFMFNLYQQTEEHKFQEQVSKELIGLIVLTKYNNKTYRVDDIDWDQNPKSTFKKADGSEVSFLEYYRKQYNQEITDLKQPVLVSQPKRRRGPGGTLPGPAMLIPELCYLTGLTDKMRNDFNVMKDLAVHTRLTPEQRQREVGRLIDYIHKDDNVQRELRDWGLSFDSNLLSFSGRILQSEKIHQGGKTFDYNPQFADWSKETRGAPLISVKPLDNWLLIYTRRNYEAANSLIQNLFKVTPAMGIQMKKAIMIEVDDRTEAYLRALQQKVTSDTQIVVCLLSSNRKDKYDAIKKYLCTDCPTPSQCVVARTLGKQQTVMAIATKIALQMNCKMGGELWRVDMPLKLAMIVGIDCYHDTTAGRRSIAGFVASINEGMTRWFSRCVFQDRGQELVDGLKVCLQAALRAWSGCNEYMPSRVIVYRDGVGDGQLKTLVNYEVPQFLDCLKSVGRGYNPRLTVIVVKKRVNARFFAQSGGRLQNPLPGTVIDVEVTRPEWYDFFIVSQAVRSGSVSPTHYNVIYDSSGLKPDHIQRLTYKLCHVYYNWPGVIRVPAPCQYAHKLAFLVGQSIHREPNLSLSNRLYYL

Substance: BmGtsf1-like, silk moth (Bombyx mori), V5SBP-tagged recombinant (natural protein)
- increase in the amount of target cleaved by MIWI piRISC (S.D. = 0.1; p = 0.0027): 2.6 fold
